From IntAct's records for PubMed 31515488

B1: Pseudouridylate synthase PUS7L (Homo sapiens), Q9H0K6 (parent)
chain: MEEDTDYRIRFSSLCFFNDHVGFHGTIKSSPSDFIVIEIDEQGQLVNKTIDEPIFKISEIQLEPNNFPKKPKLDLQNLSLEDGRNQEVHTLIKYTDGDQNHQSGSEKEDTIVDGTSKCEEKADVLSSFLDEKTHELLNNFACDVREKWLSKTELIGLPPEFSIGRILDKNQRASLHSAIRQKFPFLVTVGKNSEIVVKPNLEYKELCHLVSEEEAFDFFKYLDAKKENSKFTFKPDTNKDHRKAVHHFVNKKFGNLVETKSFSKMNCSAGNPNVVVTVRFREKAHKRGKRPLSECQEGKVIYTAFTLRKENLEMFEAIGFLAIKLGVIPSDFSYAGLKDKKAITYQAMVVRKVTPERLKNIEKEIEKKRMNVFNIRSVDDSLRLGQLKGNHFDIVIRNLKKQINDSANLRERIMEAIENVKKKGFVNYYGPQRFGKGRKVHTDQIGLALLKNEMMKAIKLFLTPEDLDDPVNRAKKYFLQTEDAKGTLSLMPEFKVRERALLEALHRFGMTEEGCIQAWFSLPHSMRIFYVHAYTSKIWNEAVSYRLETYGARVVQGDLVCLDEDIDDENFPNSKIHLVTEEEGSANMYAIHQVVLPVLGYNIQYPKNKVGQWYHDILSRDGLQTCRFKVPTLKLNIPGCYRQILKHPCNLSYQLMEDHDIDVKTKGSHIDETALSLLISFDLDASCYATVCLKEIMKHDV
partner: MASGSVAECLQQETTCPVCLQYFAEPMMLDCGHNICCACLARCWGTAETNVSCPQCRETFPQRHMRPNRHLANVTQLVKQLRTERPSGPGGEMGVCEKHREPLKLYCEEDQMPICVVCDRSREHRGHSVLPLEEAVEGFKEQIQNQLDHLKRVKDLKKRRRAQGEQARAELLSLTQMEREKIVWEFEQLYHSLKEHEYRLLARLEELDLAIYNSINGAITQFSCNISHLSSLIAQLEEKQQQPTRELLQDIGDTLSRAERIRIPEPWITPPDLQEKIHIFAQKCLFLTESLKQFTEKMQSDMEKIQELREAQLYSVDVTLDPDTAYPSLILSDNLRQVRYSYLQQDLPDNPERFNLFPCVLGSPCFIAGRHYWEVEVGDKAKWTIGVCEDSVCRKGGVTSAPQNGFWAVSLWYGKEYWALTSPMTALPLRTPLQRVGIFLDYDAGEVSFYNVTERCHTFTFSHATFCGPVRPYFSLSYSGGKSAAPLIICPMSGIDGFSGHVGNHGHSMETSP
B2: Isoform 1 of Protein quaking (Homo sapiens), Q96PU8-1 (parent)
chain: MVGEMETKEKPKPTPDYLMQLMNDKKLMSSLPNFCGIFNHLERLLDEEISRVRKDMYNDTLNGSTEKRSAELPDAVGPIVQLQEKLYVPVKEYPDFNFVGRILGPRGLTAKQLEAETGCKIMVRGKGSMRDKKKEEQNRGKPNWEHLNEDLHVLITVEDAQNRAEIKLKRAVEEVKKLLVPAAEGEDSLKKMQLMELAILNGTYRDANIKSPALAFSLAATAQAAPRIITGPAPVLPPAALRTPTPAGPTIMPLIRQIQTAVMPNGTPHPTAAIVPPGPEAGLIYTPYEYPYTLAPATSILEYPIEPSGVLGAVATKVRRHDMRVHPYQRIVTADRAATGN
B3: Asc-type amino acid transporter 1 (Homo sapiens), Q9NS82 (parent)
chain: MAGHTQQPSGRGNPRPAPSPSPVPGTVPGASERVALKKEIGLLSACTIIIGNIIGSGIFISPKGVLEHSGSVGLALFVWVLGGGVTALGSLCYAELGVAIPKSGGDYAYVTEIFGGLAGFLLLWSAVLIMYPTSLAVISMTFSNYVLQPVFPNCIPPTTASRVLSMACLMLLTWVNSSSVRWATRIQDMFTGGKLLALSLIIGVGLLQIFQGHFEELRPSNAFAFWMTPSVGHLALAFLQGSFAFSGWNFLNYVTEEMVDARKNLPRAIFISIPLVTFVYTFTNIAYFTAMSPQELLSSNAVAVTFGEKLLGYFSWVMPVSVALSTFGGINGYLFTYSRLCFSGAREGHLPSLLAMIHVRHCTPIPALLVCCGATAVIMLVGDTYTLINYVSFINYLCYGVTILGLLLLRWRRPALHRPIKVNLLIPVAYLVFWAFLLVFSFISEPMVCGVGVIIILTGVPIFFLGVFWRSKPKCVHRLTESMTHWGQELCFVVYPQDAPEEEENGPCPPSLLPATDKPSKPQ
partner: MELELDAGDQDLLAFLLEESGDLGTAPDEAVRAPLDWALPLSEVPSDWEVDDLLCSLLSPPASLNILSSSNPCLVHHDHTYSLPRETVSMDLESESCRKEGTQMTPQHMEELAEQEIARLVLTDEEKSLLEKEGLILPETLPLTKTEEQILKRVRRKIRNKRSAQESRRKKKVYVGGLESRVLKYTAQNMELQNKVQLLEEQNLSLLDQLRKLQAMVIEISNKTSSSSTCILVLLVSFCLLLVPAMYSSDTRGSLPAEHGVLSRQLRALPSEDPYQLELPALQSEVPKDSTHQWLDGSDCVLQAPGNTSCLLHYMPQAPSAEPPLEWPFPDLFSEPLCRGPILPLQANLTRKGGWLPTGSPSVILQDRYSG
B4: Protein FAM9B (Homo sapiens), Q8IZU0 (parent)
chain: MAAWGKKHAGKDPVRDECEERNRFTETREEDVTDEHGEREPFAETDEHTGANTKKPEDTAEDLTAKRKRMKMDKTCSKTKNKSKHALRKKQLKRQKRDYIHSLKLLNVLEEYITDEQKEEEEEEGEEEELIRIFQEQQKKWQQYRSVRRERLKEMKLLRDQFVKALEDFEDLCDRVFSDEDSELDN
partner: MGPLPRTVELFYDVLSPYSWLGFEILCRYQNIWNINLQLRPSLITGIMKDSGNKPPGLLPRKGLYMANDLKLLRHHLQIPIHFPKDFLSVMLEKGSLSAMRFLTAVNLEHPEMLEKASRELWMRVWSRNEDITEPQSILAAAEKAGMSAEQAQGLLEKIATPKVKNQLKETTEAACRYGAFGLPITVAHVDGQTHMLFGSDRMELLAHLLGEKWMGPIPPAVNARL
B5: Proton-coupled zinc antiporter SLC30A2 (Homo sapiens), Q9BRI3 (parent)
chain: MEAKEKQHLLDARPAIRSYTGSLWQEGAGWIPLPRPGLDLQAIELAAQSNHHCHAQKGPDSHCDPKKGKAQRQLYVASAICLLFMIGEVVGGYLAHSLAVMTDAAHLLTDFASMLISLFSLWMSSRPATKTMNFGWQRAEILGALVSVLSIWVVTGVLVYLAVERLISGDYEIDGGTMLITSGCAVAVNIIMGLTLHQSGHGHSHGTTNQQEENPSVRAAFIHVIGDFMQSMGVLVAAYILYFKPEYKYVDPICTFVFSILVLGTTLTILRDVILVLMEGTPKGVDFTAVRDLLLSVEGVEALHSLHIWALTVAQPVLSVHIAIAQNTDAQAVLKTASSRLQGKFHFHTVTIQIEDYSEDMKDCQACQGPSD
B6: MYG1 exonuclease (Homo sapiens), Q9HB07 (parent)
chain: MGHRFLRGLLTLLLPPPPLYTRHRMLGPESVPPPKRSRSKLMAPPRIGTHNGTFHCDEALACALLRLLPEYRDAEIVRTRDPEKLASCDIVVDVGGEYDPRRHRYDHHQRSFTETMSSLSPGKPWQTKLSSAGLIYLHFGHKLLAQLLGTSEEDSMVGTLYDKMYENFVEEVDAVDNGISQWAEGEPRYALTTTLSARVARLNPTWNHPDQDTEAGFKRAMDLVQEEFLQRLDFYQHSWLPARALVEEALAQRFQVDPSGEIVELAKGACPWKEHLYHLESGLSPPVAIFFVIYTDQAGQWRIQCVPKEPHSFQSRLPLPEPWRGLRDEALDQVSGIPGCIFVHASGFIGGHRTREGALSMARATLAQRSYLPQIS
partner: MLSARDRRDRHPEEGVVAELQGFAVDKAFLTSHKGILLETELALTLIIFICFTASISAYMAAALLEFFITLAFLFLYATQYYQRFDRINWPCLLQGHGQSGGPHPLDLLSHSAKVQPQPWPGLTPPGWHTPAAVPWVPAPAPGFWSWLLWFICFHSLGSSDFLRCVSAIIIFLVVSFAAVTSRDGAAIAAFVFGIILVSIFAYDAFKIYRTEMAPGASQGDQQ

Variants of: B1
Settings: with tri27_human TRIM27, P14373

Row | Variant | effect of a mutation on the interaction
1 | R527C | disrupting interaction strength
2 | I50V | with no effect

Variants of: B2
Settings: with hnrpk_human HNRNPK

Row | Variant | effect of a mutation on the interaction
3 | R336Q | with no effect

Variants of: B2
Settings: with fubp3_human FUBP3, Q96I24
Chain of fubp3_human FUBP3, Q96I24 (Q96I24 whole entry): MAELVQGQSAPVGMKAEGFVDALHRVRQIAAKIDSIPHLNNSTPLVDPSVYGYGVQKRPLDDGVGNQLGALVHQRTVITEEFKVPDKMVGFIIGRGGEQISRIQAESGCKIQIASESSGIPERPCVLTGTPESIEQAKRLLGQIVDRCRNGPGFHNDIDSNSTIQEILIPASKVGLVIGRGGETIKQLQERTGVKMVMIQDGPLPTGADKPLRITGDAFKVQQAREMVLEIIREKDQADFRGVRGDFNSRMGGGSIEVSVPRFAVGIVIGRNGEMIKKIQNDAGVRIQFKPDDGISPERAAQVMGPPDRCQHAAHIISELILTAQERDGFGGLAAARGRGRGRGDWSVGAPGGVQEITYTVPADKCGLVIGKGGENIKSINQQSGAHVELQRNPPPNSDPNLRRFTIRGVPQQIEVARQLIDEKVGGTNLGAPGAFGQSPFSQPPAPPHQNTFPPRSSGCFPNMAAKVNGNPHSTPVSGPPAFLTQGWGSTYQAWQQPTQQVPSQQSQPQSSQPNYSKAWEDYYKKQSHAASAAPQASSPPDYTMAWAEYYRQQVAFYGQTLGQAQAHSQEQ

Row | Variant | effect of a mutation on the interaction
4 | R336Q | with no effect

Variants of: B2
Settings: with rbpms_human RBPMS

Row | Variant | effect of a mutation on the interaction
5 | R336Q | with no effect

Variants of: B3
Settings: with creb3_human CREB3, O43889

Row | Variant | effect of a mutation on the interaction
6 | R413Q | with no effect
7 | R267H | with no effect

Variants of: B4
Settings: with gstk1_human GSTK1, Q9Y2Q3

Row | Variant | effect of a mutation on the interaction
8 | R23H | with no effect

Variants of: B5
Settings: with tnr12_human TNFRSF12A

Row | Variant | effect of a mutation on the interaction
9 | T181M | with no effect

Variants of: B5
Settings: with ada33_human ADAM33, Q9BZ11
Chain of ada33_human ADAM33, Q9BZ11 (Q9BZ11 whole entry): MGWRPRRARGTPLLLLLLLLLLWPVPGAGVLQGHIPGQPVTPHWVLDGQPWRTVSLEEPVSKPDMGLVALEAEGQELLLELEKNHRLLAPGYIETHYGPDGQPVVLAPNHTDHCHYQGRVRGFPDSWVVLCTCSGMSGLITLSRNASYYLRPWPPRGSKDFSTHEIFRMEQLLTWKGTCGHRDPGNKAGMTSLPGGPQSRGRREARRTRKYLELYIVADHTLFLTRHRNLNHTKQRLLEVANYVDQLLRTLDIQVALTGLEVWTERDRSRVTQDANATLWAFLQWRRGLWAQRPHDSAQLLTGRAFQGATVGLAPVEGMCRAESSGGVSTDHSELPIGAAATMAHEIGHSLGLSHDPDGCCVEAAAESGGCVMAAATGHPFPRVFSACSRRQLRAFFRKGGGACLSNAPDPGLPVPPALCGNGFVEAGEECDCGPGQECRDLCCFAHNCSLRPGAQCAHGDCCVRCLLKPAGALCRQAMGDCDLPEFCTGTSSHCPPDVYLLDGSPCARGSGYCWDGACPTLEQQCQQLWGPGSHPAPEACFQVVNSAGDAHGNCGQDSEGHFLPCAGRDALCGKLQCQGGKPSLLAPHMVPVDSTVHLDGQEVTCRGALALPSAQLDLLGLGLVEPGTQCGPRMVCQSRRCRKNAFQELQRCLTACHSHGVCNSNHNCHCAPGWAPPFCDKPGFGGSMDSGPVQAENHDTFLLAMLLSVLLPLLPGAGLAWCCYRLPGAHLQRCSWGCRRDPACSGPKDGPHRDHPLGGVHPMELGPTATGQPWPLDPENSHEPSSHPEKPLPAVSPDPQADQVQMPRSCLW

Row | Variant | effect of a mutation on the interaction
10 | T181M | with no effect

Variants of: B5
Settings: with ccl4_human CCL4, P13236
Chain of ccl4_human CCL4, P13236 (P13236 whole entry): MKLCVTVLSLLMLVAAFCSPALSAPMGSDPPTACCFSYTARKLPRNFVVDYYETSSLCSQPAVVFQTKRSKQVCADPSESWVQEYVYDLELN

Row | Variant | effect of a mutation on the interaction
11 | T181M | with no effect

Variants of: B6
Settings: with cklf5_human CMTM5, Q96DZ9

Row | Variant | effect of a mutation on the interaction
12 | R188Q | with no effect
